T1: TP-51 peptide (aa 352-414 of SEQ ID NO:1) (human)
T1 construct: Synthetic peptide (Pepscan)
T1 peptide: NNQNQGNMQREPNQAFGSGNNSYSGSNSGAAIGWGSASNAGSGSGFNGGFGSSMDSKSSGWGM


Key:
[1] = target: T2, recombinant human full-length TDP-43 (TAR DNA-binding protein 43), soluble (human, UniProt Q13148 1-414); assay: SPR 8K, immobilized soluble TDP-43
T2 construct: Used on Luminex beads, coated on ELISA plates, and immobilized or injected in SPR; also called FL TDP-43; TDP-43 protein
Method: The instrument was primed with running buffer PBS-P+ and flow cells (Fc) 1 and 2 of channels 1-8 were activated with a fresh solution of EDC/NHS (Amine Coupling Kit, 1:1 ratio of both reagents, GE Healthcare Life Sciences, BR-1006-33) at 10 µL/min for 420 sec. Soluble TDP-43 (Selvita) was diluted in sodium acetate pH 4.5 to a final concentration of 5 µg/mL and injected for 900 sec with a flow rate of 5 µL/min on Fc 2. All flow cells were quenched with 1 M ethanol amine (GE Healthcare Life Sciences, BR-1006-33), at 10 µL/min for 420 sec. Immobilization levels after ethanolamine quenching were 680 RU on all eight channels. Prior to analysis, two Startup cycles were run. Increasing mAbs concentrations were injected in single-cycle kinetics ranging from 1.2 to 100 nM, prepared from a 3-fold serial dilution in running buffer, with a contact time of 300 sec and a dissociation time of 900 sec at a flow rate of 30 µL/min. Each cycle was followed by one regeneration using 10 mM Glycine-HCl pH 1.7 with a contact time of 30 sec at 30 µL/min, followed by a stabilization period of 300 sec. Results obtained from single-cycle kinetics were double-referenced using the blank Fc 1 and buffer cycles and evaluated using Biacore 8 K evaluation software using the 1:1 kinetic fit model with RI and global Rmax. The following kinetic parameters were obtained: association rate constant (ka), dissociation rate constant (kd), affinity constant (KD) and saturation response (Rmax).

[2] = target: T1, TP-51 peptide (aa 352-414 of SEQ ID …); assay: SPR 8K, mAb captured, TP-51 injected
Method: The instrument was primed with running buffer PBS-P+. Fc 1-2 of channels 1-8 (8 K) were activated with a fresh solution of EDC/NHS(Amine Coupling Kit, 1:1 ratio of both reagents, GE Healthcare Life Sciences, BR-1006-33) at 10 µL/min for 420 sec and goat anti-human antibody (GE Healthcare Life Sciences, 29234600) was immobilized at 25 µg/mL in 10 mM sodium acetate pH 5 for 420 sec. Next, all Fc were quenched with 1 M ethanol amine(GE Healthcare Life Sciences, BR-1006-33), for 420 sec. Any non-covalently bound antibodies were removed by two regenerations with 10 mM Glycine-HCl pH 1.7 for 30 sec. Immobilization levels were evaluated following ethanolamine quenching (10000 RU for all channels).
Each cycle started with non-covalent capture of humanized variants which were diluted in running buffer to a final concentration of 2 µg/mL and injected for 60 sec with a flow rate of 10 µL/min. TDP-43 mAbs were captured on channels 1-8, leaving Fc 1 as a blank Fc. Capture levels were evaluated following a 120 sec stabilization period after each mAb injection and ranged from 300-500 RU.
Injections of TP-51 peptide (Pepscan) were performed in single-cycle kinetics with increasing concentrations ranging from 1.2-100 nM prepared from serial 3-fold dilutions. Injections were performed with contact times of 300 sec/injection at a flow rate of 25 µL/min. A dissociation phase of 3600 sec followed the final injection. Sensor surface was regenerated by one injection of 10 mM Glycine-HCl pH 1.7 at a flow rate of 10 µL/min for 120 sec, followed by a stabilization period of 300 sec. Results obtained from single-cycle kinetics were double-referenced using the blank Fc 1 and buffer cycles and evaluated by Biacore 8 K evaluation software with 1:1 kinetic fit model with RI and global Rmax. The following kinetic parameters were obtained: association rate constant (ka), dissociation rate constant (kd), affinity constant (KD) and saturation response (Rmax).

[3] = target: T2, recombinant human full-length TDP-43 …; assay: SPR, immobilized soluble TDP-43
Method: (§1) Binding avidity to soluble or aggregated FL TDP-43 was evaluated by determing the dissociation constants (KD) using surface plasmon resonance (SPR; Biacore T200, GE Healthcare Life Sciences). Recombinant human soluble or aggregated FL TDP-43 were immobilized on a CM5 Series S sensor chip (GE Healthcare Life Sciences) by amine coupling. Soluble TDP-43 was immobilized at a concentration of 5 µg/ml in 10 mM sodium acetate (pH 4.5) with a flow rate of 5 µl/min for 420 seconds resulting in an immobilization level of 150 RU. Aggregated TDP-43 was immobilized at a concentration of 50 µg/ml in 10 mM sodium acetate (pH 4.5) with a flow rate of 5 µl/min for 840 seconds resulting in an immobilization level of 110 RU. Biotinylated TP-73 peptide (aa 181-190 of SEQ ID NO:1) was immobilized on a Series S Sensor Chip SA (GE Healthcare Life Sciences) at a concentration of 5 µg/ml in PBS-P⁺ with a flow rate of 5 µl/min for 30 seconds resulting in an immobilization level of 400 RU. […] The antibodies were injected at a flow rate of 50 µl/min for 90 seconds contact time and 700 seconds dissociation phase followed by three regenerations with 10 mM glycine-HCl pH 1.7. For the optimized SPR protocol the antibodies were diluted 3-fold starting from 300 nM and dilute down to 1.2 nM and injected for 300 seconds at 30 µl/min followed by 600 seconds dissociation. The surface was regenerated by one injection with 10 mM glycine-HCl pH 1.7. Results obtained from binding kinetics were double-referenced using a blank flow cell and a buffer cycle and were evaluated with a global 1:1 fitting model with RI. Avidities for 11 antibodies and two Fab fragments are depicted in Table 8. […] In addition, some antibodies show preferential binding to aggregated TDP-43 as compared with soluble TDP-43.

[4] = target: T3, recombinant human aggregated full-length TDP-43 (human, UniProt Q13148 1-414); assay: SPR, immobilized aggregated TDP-43
T3 construct: also called aggregated TDP-43; aggregated FL TDP-43
Method: as §1

T3 sequence (Q13148 whole entry): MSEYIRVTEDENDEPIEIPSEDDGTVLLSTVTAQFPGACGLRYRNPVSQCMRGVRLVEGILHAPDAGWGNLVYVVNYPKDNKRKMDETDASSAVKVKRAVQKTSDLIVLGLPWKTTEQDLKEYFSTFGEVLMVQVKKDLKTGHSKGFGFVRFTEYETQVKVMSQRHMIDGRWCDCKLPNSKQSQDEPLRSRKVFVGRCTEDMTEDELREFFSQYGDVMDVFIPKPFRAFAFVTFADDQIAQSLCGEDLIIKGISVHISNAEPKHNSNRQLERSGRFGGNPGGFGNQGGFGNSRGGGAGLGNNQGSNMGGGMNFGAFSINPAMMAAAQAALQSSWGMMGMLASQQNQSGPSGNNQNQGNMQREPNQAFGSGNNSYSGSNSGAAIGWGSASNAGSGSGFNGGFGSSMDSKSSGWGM
T2 sequence (Q13148 whole entry): as above

Binder | Kd [1] [nM] | koff [1] [s⁻¹] | kon [1] [M⁻¹ s⁻¹] | Kd [2] [nM] | koff [2] [s⁻¹] | kon [2] [M⁻¹ s⁻¹] | Kd [3] [nM] | koff [3] [s⁻¹] | kon [3] [M⁻¹ s⁻¹] | Kd [4] [nM] | koff [4] [s⁻¹] | kon [4] [M⁻¹ s⁻¹]
642D12B4 Fab (Fab, V domains shown, Fab fragment; also called Fab fragment of ACI-7069-642D12-Ab1) VH: EVQLQQSGAELVKPGASVRLSCTASGFNIKDPYMHWVRQRPKQGLEWIGRIDPADGNTKYDPKFQGKATLTADTSSNVAYLHLSSLTSEDTAVYYCARFYGSSHWYFDVWGAGTTVTVSS VL: DIKMTQSPSSMYASLGERVTITCKASQDIKRYLSWYQQKPWKSPKILIYYATSLADGVPSRFSGTGSGQDYSLTISSLESDDVATYYCLQQGESPYTFGGGTKLEIK |  |  |  |  |  |  | 21.8 | 0.00267 | 128000 | 21.8 | 0.00176 | 94000
ACI-7069-642A10-Ab1 (antibody, mouse IgG1, V domains shown, Mouse IgG1, kappa, from hybridoma; also called 642A10B11) VH: QVQLQQPGAELVKPGASVKLSCKASGYTFTKYWMHWVKQRPGQGLEWIGEINPSNGRTNYNEKFKSKATLTVDKSSSTAYMQLSSLTSEDSAVYYCARYMDYWGQGTSVTVSS VL: not shown |  |  |  |  |  |  |  |  |  | 4.64 | 0.00585 | 1.26e+06
hACI-7069-633B12-Ab1_H19L14 (IgG4) (antibody, V domains shown) VH: QVQLVQSGAEVKKPGASVKVSCKTSGFTFTEYSMHWVRQAPGQRLEWIGGINPGNAGTSYNQKFKGRVTITVDTSASTAYMELSSLRSEDTAVYYCARESWGQGTTVTVSS VL: DVVMTQSPLSLPVTLGQPASISCKSSQSLLHSDAKTYLNWLQQRPGQSPRRLIYLVSKLDSGVPDRFSGSGSGTDFTLKISRVEAEDLGVYYCFQGTHFPHTFGQGTKLEIK | 1.01 | 3e-05 | 30000 | 9.4 | 0.0011 | 120000 |  |  |  |  |  | 
hACI-7069-633B12-Ab1_H19L18 (IgG4) (antibody, V domains shown) VH: QVQLVQSGAEVKKPGASVKVSCKTSGFTFTEYSMHWVRQAPGQRLEWIGGINPGNAGTSYNQKFKGRVTITVDTSASTAYMELSSLRSEDTAVYYCARESWGQGTTVTVSS VL: DVVMTQSPLSLPVTLGQPASISCKSSQSLLHSDAKTYLNWLQQRPGQSPRRLIYLVSKLDSRVPDRFSGSGSGTDFTLKISRVEAEDLGVYYCFQGTHFPHTFGQGTKLEIK | 0.431 | 1.4e-05 | 33000 | 1.9 | 0.00023 | 120000 |  |  |  |  |  | 
hACI-7069-633B12-Ab1_H20L14 (IgG4) (antibody, V domains shown) VH: EVQLVQSGAEVKKPGASVKVSCKTSGFTFTEYSMHWVRQAPGQRLEWIGGINPGNAGTSYNQKFKGRVTITVDTSASTAYMELSSLRSEDTAVYYCARESWGQGTTVTVSS VL: DVVMTQSPLSLPVTLGQPASISCKSSQSLLHSDAKTYLNWLQQRPGQSPRRLIYLVSKLDSGVPDRFSGSGSGTDFTLKISRVEAEDLGVYYCFQGTHFPHTFGQGTKLEIK | 1.74 | 4.4e-05 | 25000 | 11.1 | 0.0014 | 130000 |  |  |  |  |  | 

Now from value to binder:

Kd [1] [nM] | koff [1] [s⁻¹] | kon [1] [M⁻¹ s⁻¹] | Kd [2] [nM] | koff [2] [s⁻¹] | kon [2] [M⁻¹ s⁻¹] | Kd [3] [nM] | koff [3] [s⁻¹] | kon [3] [M⁻¹ s⁻¹] | Kd [4] [nM] | koff [4] [s⁻¹] | kon [4] [M⁻¹ s⁻¹] | Binder
0.238 | 9.9e-06 | 42000 | 1.7 | 0.00021 | 130000 |  |  |  |  |  |  | cACI-7069-633B12-Ab1 (human IgG4 S228P chimeric) (antibody, V domains shown, Murine variable domains on a human IgG4 (S228P) constant domain and human kappa; also called chimeric antibody) VH: EVQLQQSGPELVKPGASVKISCKTSGFTFTEYSMHWVKQSHGKSLEWIGGINPNNGGTSYNQKFKGKATLTVDKSSSTAYMELRSLTSEDSAVYYCARESWGQGTTLTVSS VL: not shown
1.38 | 3.5e-05 | 26000 | 13.1 | 0.00093 | 70000 |  |  |  |  |  |  | hACI-7069-633B12-Ab1_H19L17 (IgG4) (antibody, V domains shown) VH: QVQLVQSGAEVKKPGASVKVSCKTSGFTFTEYSMHWVRQAPGQRLEWIGGINPGNAGTSYNQKFKGRVTITVDTSASTAYMELSSLRSEDTAVYYCARESWGQGTTVTVSS VL: DVVMTQSPLSLPVTLGQPASISCKSSQSLLHSDAKTYLNWLLQRPGQSPRRLIYLVSKLDSGVPDRFSGSGSGTDFTLKISRVEAEDLGVYYCFQGTHFPHTFGQGTKLEIK
0.605 | 3.3e-05 | 55000 | 9.9 | 0.0013 | 140000 |  |  |  |  |  |  | hACI-7069-633B12-Ab1_H16L14 (IgG4) (antibody, V domains shown) VH: EVQLVQSGAEVKKPGASVKVSCKASGFTFTEYSMHWVRQAPGQRLEWMGGINPGNAGTSYNQKFKGRVTITVDTSASTAYMELSSLRSEDTAVYYCARESWGQGTTVTVSS VL: DVVMTQSPLSLPVTLGQPASISCKSSQSLLHSDAKTYLNWLQQRPGQSPRRLIYLVSKLDSGVPDRFSGSGSGTDFTLKISRVEAEDLGVYYCFQGTHFPHTFGQGTKLEIK
1.34 | 4.2e-05 | 31000 | 9 | 0.0012 | 130000 |  |  |  |  |  |  | hACI-7069-633B12-Ab1_H17L14 (IgG4) (antibody, V domains shown) VH: QVQLVQSGAEVKKPGASVKVSCKASGFTFTEYSMHWVKQAPGQRLEWMGGINPGNAGTSYNQKFKGRVTITVDTSASTAYMELSSLRSEDTAVYYCARESWGQGTTVTVSS VL: DVVMTQSPLSLPVTLGQPASISCKSSQSLLHSDAKTYLNWLQQRPGQSPRRLIYLVSKLDSGVPDRFSGSGSGTDFTLKISRVEAEDLGVYYCFQGTHFPHTFGQGTKLEIK
0.684 | 1.9e-05 | 27000 | 2.9 | 0.00026 | 90000 |  |  |  |  |  |  | hACI-7069-633B12-Ab1_H20L19 (IgG4) (antibody, V domains shown) VH: EVQLVQSGAEVKKPGASVKVSCKTSGFTFTEYSMHWVRQAPGQRLEWIGGINPGNAGTSYNQKFKGRVTITVDTSASTAYMELSSLRSEDTAVYYCARESWGQGTTVTVSS VL: DVVMTQSPLSLPVTLGQPASISCKSSQSLLHSDAKTYLNWLQQRPGQSPKRLIYLVSKLDSRVPDRFSGSGSGTDFTLKISRVEAEDLGVYYCFQGTHFPHTFGQGTKLEIK
1.2 | 3.5e-05 | 29000 | 8.3 | 0.00094 | 110000 |  |  |  |  |  |  | hACI-7069-633B12-Ab1_H15L14 (IgG4) (antibody, V domains shown) VH: QVQLVQSGAEVKKPGASVKVSCKASGFTFTEYSMHWVRQAPGQRLEWMGGINPGNAGTSYNQKFKGRVTITVDTSASTAYMELSSLRSEDTAVYYCARESWGQGTTVTVSS VL: DVVMTQSPLSLPVTLGQPASISCKSSQSLLHSDAKTYLNWLQQRPGQSPRRLIYLVSKLDSGVPDRFSGSGSGTDFTLKISRVEAEDLGVYYCFQGTHFPHTFGQGTKLEIK

Source: patent US20230322908A1 (AC IMMUNE, published 2023)
